Source: US20150299265A1 (Molecular Partners, published 2015)

Each binder was assayed against Human HER2 expressed on tumour cells (human, UniProt P04626 23-1255) (assay: cell-based or functional assay).

| Binder | % activity vs. DARPin # 41, BT474 cell proliferation [%] | IC50 [nM], inhibition of BT474 cell proliferation (BrdU) [nM] |
| --- | --- | --- |
| DARPin #23 (designed binder) MRGSHHHHHHGSDLGDKLLQSDLGIKLLFAAAKSQDDEVRILLAAGADVNAKDFQSVTPLHIAAQSGHLEIVEVLLKAGADVNAKDVTGDTPLHLAAQHGHLEIVEVLLKAGADVNAQDERGWTPADLAADWGHEDIAEVLQKLGGGGSGGGGSRSDLGAKLLVAATSGQDDEVRILLAAGADVNAKDRIGFTPLHRAAFVGHLEIVEVLLKAGADVNAQDDFGHTPADLAASLGHEDIAEVLQKLN | 97.3 | 2.99 |
| DARPin #27 (designed binder) MRGSHHHHHHGSDLGVKLLWAAARGQDDEVRILLAAGADVNAKDFQGITPLHIAATNGHLEIVEVLLKAGADVNAKDITGETPLHHAADSGHLEIVEVLLKAGADVNAQDKAGVTPADLAAAWGHEDIAEVLQKLGGGGSGGGGSRSDLGIKLLQAANLGQDDEVRILLATGADVNAKDSIGQTPLHWAARRGHLEIVEVLLKAGADVNAKDEYGVTPLHLAASLGHLEIVEVLLKAGADVNAQDESGETPADLAALHGHEDIAEVLQKLN | 37.8 | 4.57 |
| DARPin #29 (designed binder) MRGSHHHHHHGSDLGVKLLWAAARGQDDEVRILLAAGADVNAKDFQGITPLHIAATNGHLEIVEVLLKAGADVNAKDITGETPLHHAADSGHLEIVEVLLKAGADVNAQDKAGVTPADLAAAWGHEDIAEVLQKLGGGGSGGGGSRSDLGKKLLEAARAGQDDEVRILMANGADVNAKDEYGLTPLYLATAHGHLEIVEVLLKNGADVNAVDAIGFTPLHLAAFIGHLEIAEVLLKHGADVNAQDKFGKTAFDISIGNGNEDLAEILQKLN | 95 | 1.33 |
| DARPin #32 (designed binder) MRGSHHHHHHGSDLGIKLLFAASRGQDDEVRILLAAGADVNAKDFEGITPLHAAARSGHLEIVEVLLKAGADVNAKDVEGWTPLHYAASYGHLEIVEVLLKAGADVNAQDNHGATPADLAAQWGHEDIAEVLQKLGGGGSGGGGSRSDLGIKLLQAANLGQDDEVRILLATGADVNAKDSIGQTPLHWAARRGHLEIVEVLLKAGADVNAKDEYGVTPLHLAASLGHLEIVEVLLKAGADVNAQDESGETPADLAALHGHEDIAEVLQKLN | 48 | 3.29 |
| DARPin #24 (designed binder) MRGSHHHHHHGSDLGDKLLQSDLGIKLLFAAAKSQDDEVRILLAAGADVNAKDFQSVTPLHIAAQSGHLEIVEVLLKAGADVNAKDVTGDTPLHLAAQHGHLEIVEVLLKAGADVNAQDERGWTPADLAADWGHEDIAEVLQKLGGGGSGGGGSRSDLGKKLLEAARAGQDDEVRILMANGADVNAKDEYGLTPLYLATAHGHLEIVEVLLKNGADVNAVDAIGFTPLHLAAFIGHLEIAEVLLKHGADVNAQDKFGKTAFDISIGNGNEDLAEILQKLN | 99.9 | 1.97 |
| DARPin #28 (designed binder) MRGSHHHHHHGSDLGVKLLWAAARGQDDEVRILLAAGADVNAKDFQGITPLHIAATNGHLEIVEVLLKAGADVNAKDITGETPLHHAADSGHLEIVEVLLKAGADVNAQDKAGVTPADLAAAWGHEDIAEVLQKLGGGGSGGGGSRSDLGAKLLVAATSGQDDEVRILLAAGADVNAKDRIGFTPLHRAAFVGHLEIVEVLLKAGADVNAQDDFGHTPADLAASLGHEDIAEVLQKLN | 82.5 | 5.15 |
| DARPin #22 (designed binder) MRGSHHHHHHGSDLGDKLLQSDLGIKLLFAAAKSQDDEVRILLAAGADVNAKDFQSVTPLHIAAQSGHLEIVEVLLKAGADVNAKDVTGDTPLHLAAQHGHLEIVEVLLKAGADVNAQDERGWTPADLAADWGHEDIAEVLQKLGGGGSGGGGSRSDLGIKLLQAANLGQDDEVRILLATGADVNAKDSIGQTPLHWAARRGHLEIVEVLLKAGADVNAKDEYGVTPLHLAASLGHLEIVEVLLKAGADVNAQDESGETPADLAALHGHEDIAEVLQKLN | 60.1 | 4.03 |

Continued, values first:

| % activity vs. DARPin # 41, BT474 cell proliferation [%] | IC50 [nM], inhibition of BT474 cell proliferation (BrdU) [nM] | Binder |
| --- | --- | --- |
| 91.2 | 2.76 | DARPin #40 (designed binder) MRGSHHHHHHGSDLGHKLLEAAVAGQDDEVRILLAAGADVNAKDWYGKTPLHFAAGLGHLEIVEVLLKAGADVNAKDEDGQTPLHLAAAYGHLEIVEVLLKAGADVNAQDNDGFTPADLAADSGHEDIAEVLQKLGGGGSGGGGSRSDLGKKLLEAARAGQDDEVRILMANGADVNAKDEYGLTPLYLATAHGHLEIVEVLLKNGADVNAVDAIGFTPLHLAAFIGHLEIAEVLLKHGADVNAQDKFGKTAFDISIGNGNEDLAEILQKLN |
| 100 | 3.34 | DARPin #46 (designed binder) MRGSHHHHHHGSDLGKKLLEAARAGQDDEVRILMANGADVNAKDFYGITPLHLAAAYGHLEIVEVLLKHGADVNAHDWNGWTPLHLAAKYGHLEIVEVLLKHGADVNAIDNAGKTPLHLAAAHGHLEIVEVLLKYGADVNAQDKFGKTAFDISIDNGNEDLAEILQKLGGGGSGGGGSRSDLGKKLLEAARAGQDDEVRILMANGADVNATDIHGHTPLHLAAAMGHLEIVEVLLKNGADVNANDWRGFTPLHLAALNGHLEIVEVLLKNGADVNATDTAGNTPLHLAAWFGHLEIVEVLLKNGADVNAQDKFGKTAFDISIDNGNEDLAEILQKLN |
| 95.1 | 3.88 | DARPin #34 (designed binder) MRGSHHHHHHGSDLGIKLLFAASRGQDDEVRILLAAGADVNAKDFEGITPLHAAARSGHLEIVEVLLKAGADVNAKDVEGWTPLHYAASYGHLEIVEVLLKAGADVNAQDNHGATPADLAAQWGHEDIAEVLQKLGGGGSGGGGSRSDLGKKLLEAARAGQDDEVRILMANGADVNAKDEYGLTPLYLATAHGHLEIVEVLLKNGADVNAVDAIGFTPLHLAAFIGHLEIAEVLLKHGADVNAQDKFGKTAFDISIGNGNEDLAEILQKLN |
| 68.8 | 2.56 | DARPin #36 (designed binder) MRGSHHHHHHGSDLGIKLLFAAAKGQDDEVRILLAAGADVNAKDFEGYTPLHVAAYDGHLEIVEVLLKAGADVNAKDSQGRTPLHEAAYSGHLEIVEVLLKAGADVNAQDDAGETPADLAAAWGHEDIAEVLQKLGGGGSGGGGSRSDLGAKLLVAATSGQDDEVRILLAAGADVNAKDRIGFTPLHRAAFVGHLEIVEVLLKAGADVNAQDDFGHTPADLAASLGHEDIAEVLQKLN |
| 6.8 |  | DARPin #47 (designed binder) MRGSHHHHHHGSDLGDKLLQSDLGIKLLFAAAKSQDDEVRILLAAGADVNAKDFQSVTPLHIAAQSGHLEIVEVLLKAGADVNAKDVTGDTPLHLAAQHGHLEIVEVLLKAGADVNAQDERGWTPADLAADWGHEDIAEVLQKLGGGGSGGGGSRSDLGIKLLVAAAQGQDDEVRILLAAGADVNAKDQQGATPLHLAAWKGHLEIVEVLLKAGADVNAKDLSGDTPLHIAAWFGHLEIVEVLLKAGADVNAQDTEGYTPADLAALYGHEDIAEVLQKLN |
| 99.3 | 3.3 | DARPin #38 (designed binder) MRGSHHHHHHGSDLGHKLLEAAVAGQDDEVRILLAAGADVNAKDWYGKTPLHFAAGLGHLEIVEVLLKAGADVNAKDEDGQTPLHLAAAYGHLEIVEVLLKAGADVNAQDNDGFTPADLAADSGHEDIAEVLQKLGGGGSGGGGSRSDLGIKLLQAANLGQDDEVRILLATGADVNAKDSIGQTPLHWAARRGHLEIVEVLLKAGADVNAKDEYGVTPLHLAASLGHLEIVEVLLKAGADVNAQDESGETPADLAALHGHEDIAEVLQKLN |
| 100 | 1.55 | DARPin #45 (designed binder) MRGSHHHHHHGSDLGKKLLEAARAGQDDEVRILMANGADVNAKDFYGITPLHLAAAYGHLEIVEVLLKHGADVNAHDWNGWTPLHLAAKYGHLEIVEVLLKHGADVNAIDNAGKTPLHLAAAHGHLEIVEVLLKYGADVNAQDKFGKTAFDISIDNGNEDLAEILQKLGGGGSGGGGSRSDLGKKLLEAARAGQDDEVRILMANGADVNAKDEYGLTPLYLATAHGHLEIVEVLLKNGADVNAVDAIGFTPLHLAAFIGHLEIAEVLLKHGADVNAQDKFGKTAFDISIGNGNEDLAEILQKLN |
| 94.8 | 2.19 | DARPin #37 (designed binder) MRGSHHHHHHGSDLGIKLLFAAAKGQDDEVRILLAAGADVNAKDFEGYTPLHVAAYDGHLEIVEVLLKAGADVNAKDSQGRTPLHEAAYSGHLEIVEVLLKAGADVNAQDDAGETPADLAAAWGHEDIAEVLQKLGGGGSGGGGSRSDLGKKLLEAARAGQDDEVRILMANGADVNAKDEYGLTPLYLATAHGHLEIVEVLLKNGADVNAVDAIGFTPLHLAAFIGHLEIAEVLLKHGADVNAQDKFGKTAFDISIGNGNEDLAEILQKLN |
| 65.3 | 4.47 | DARPin #33 (designed binder) MRGSHHHHHHGSDLGIKLLFAASRGQDDEVRILLAAGADVNAKDFEGITPLHAAARSGHLEIVEVLLKAGADVNAKDVEGWTPLHYAASYGHLEIVEVLLKAGADVNAQDNHGATPADLAAQWGHEDIAEVLQKLGGGGSGGGGSRSDLGAKLLVAATSGQDDEVRILLAAGADVNAKDRIGFTPLHRAAFVGHLEIVEVLLKAGADVNAQDDFGHTPADLAASLGHEDIAEVLQKLN |
| 100 | 3.77 | DARPin #42 (designed binder) MRGSHHHHHHGSDLGAKLLSDLGVKLLWAAARGQDDEVRILLAAGADVNAKDFQGITPLHIAAQSGHLEIVEVLLKAGADVNAKDVTGDTPLHLAAQHGHLVIVEVLLKAGADVNAQDERGWTPADLAADWGHEDIAEVLQKLGGGGSGGGGSRSDLGKKLLEAARAGQDDEVRILMANGADVNATDIHGHTPLHLAAAMGHLEIVEVLLKNGADVNANDWRGFTPLHLAALNGHLEIVEVLLKNGADVNATDTAGNTPLHLAAWFGHLEIVEVLLKNGADVNAQDKFGKTAFDISIDNGNEDLAEILQKLN |
